Assay in all cases: cell-based or functional assay
For experiment [1], the target named is T1, BMP10 (UniProt O95393).
T1 sequence (looked up): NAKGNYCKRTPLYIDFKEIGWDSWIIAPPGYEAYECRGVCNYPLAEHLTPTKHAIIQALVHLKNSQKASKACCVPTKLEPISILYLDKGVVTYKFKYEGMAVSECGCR

Experiment [2] concerns the target T2, GDF11 (UniProt O95390).
T2 sequence (looked up): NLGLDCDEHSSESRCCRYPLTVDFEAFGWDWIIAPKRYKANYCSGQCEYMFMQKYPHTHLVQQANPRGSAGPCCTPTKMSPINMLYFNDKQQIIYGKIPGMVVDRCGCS

In experiment [3] the target is T3, GDF8 (UniProt O14793).
T3 sequence (looked up): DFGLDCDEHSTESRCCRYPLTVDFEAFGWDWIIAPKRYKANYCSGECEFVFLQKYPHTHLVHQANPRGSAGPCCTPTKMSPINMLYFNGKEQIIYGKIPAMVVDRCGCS

Experiment [4] deals with T4, activin A (UniProt P08476).
T4 sequence (looked up): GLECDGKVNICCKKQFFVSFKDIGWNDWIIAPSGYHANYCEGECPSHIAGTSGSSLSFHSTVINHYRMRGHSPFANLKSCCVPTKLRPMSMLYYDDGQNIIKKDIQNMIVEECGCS

The target in experiment [5] is T5, activin B (UniProt P09529).
T5 sequence (looked up): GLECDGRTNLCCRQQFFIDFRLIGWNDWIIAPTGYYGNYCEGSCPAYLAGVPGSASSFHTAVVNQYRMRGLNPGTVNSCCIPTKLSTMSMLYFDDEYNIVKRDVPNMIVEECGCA

Experiment [6] addresses T6, BMP9 (UniProt Q9UK05).
T6 sequence (looked up): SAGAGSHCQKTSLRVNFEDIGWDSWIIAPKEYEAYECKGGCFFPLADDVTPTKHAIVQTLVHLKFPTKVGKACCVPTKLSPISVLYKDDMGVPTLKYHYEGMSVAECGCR

ActRIIB-G1Fc (SEQ ID NO: 5) (Fc fusion), sequence (chain): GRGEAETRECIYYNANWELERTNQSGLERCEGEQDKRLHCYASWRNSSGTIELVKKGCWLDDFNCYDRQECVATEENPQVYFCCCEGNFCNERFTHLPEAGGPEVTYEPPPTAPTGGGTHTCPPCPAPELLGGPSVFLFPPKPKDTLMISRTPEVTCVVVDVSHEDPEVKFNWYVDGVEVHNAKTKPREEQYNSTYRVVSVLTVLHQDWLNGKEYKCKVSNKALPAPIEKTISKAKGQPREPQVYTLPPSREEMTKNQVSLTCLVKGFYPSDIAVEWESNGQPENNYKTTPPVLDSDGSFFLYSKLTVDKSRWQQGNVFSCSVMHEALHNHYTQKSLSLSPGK

On to ActRIIB(F82T)-G1Fc (Fc fusion), for which the IC50 (nM); A204 CAGA12 luciferase reporter in experiment [1] was found to be 0.07 nM; in experiment [2], 0.27 nM; in experiment [3], 2.17 nM; in experiment [4], 0.1 nM; in experiment [5], 0.09 nM.

For ActRIIB(F82W, N83A)-G1Fc (Fc fusion), the results for the IC50 (ng/mL); A204 CAGA12 luciferase reporter in experiment [6] and in experiment [2] were 40000 ng/mL and 389 ng/mL, respectively.

Turning to ActRIIB(L79K)-G1Fc (Fc fusion), the IC50 (ng/mL); A204 CAGA12 luciferase reporter in experiment [2] was 477 ng/mL.

For the substance ActRIIB-Fc A24N (Fc fusion), the IC50 (ng/mL); A204 CAGA12 luciferase reporter in experiment [6] turned out to be 409 ng/mL; in experiment [2] it was 99 ng/mL; in experiment [4], 128 ng/mL.

For the substance ActRIIB-Fc E50K (Fc fusion), the IC50 (ng/mL); A204 CAGA12 luciferase reporter in experiment [6] is 721 ng/mL; in experiment [2], 180 ng/mL; in experiment [4], 132 ng/mL.

Regarding ActRIIB-Fc E50P (Fc fusion), the IC50 (ng/mL); A204 CAGA12 luciferase reporter in experiment [6] was 3000 ng/mL; in experiment [2], 638 ng/mL; in experiment [4], 756 ng/mL.

As to ActRIIB-Fc E52A (Fc fusion), the IC50 (ng/mL); A204 CAGA12 luciferase reporter in experiment [6] was 359 ng/mL; in experiment [2], 71 ng/mL; in experiment [4], 198 ng/mL.

On to ActRIIB-Fc E52K (Fc fusion), for which the IC50 (ng/mL); A204 CAGA12 luciferase reporter came to 10000 ng/mL in experiment [6], 296 ng/mL in experiment [2] and 762 ng/mL in experiment [4].

In experiment [2], ActRIIB-Fc F82W (Fc fusion) had an IC50 (ng/mL); A204 CAGA12 luciferase reporter of 276 ng/mL.

Regarding ActRIIB-Fc K55D (Fc fusion), the figures for the IC50 (ng/mL); A204 CAGA12 luciferase reporter in experiment [6], in experiment [2] and in experiment [4] were 5500 ng/mL, 365 ng/mL and 396 ng/mL, respectively.

ActRIIB-Fc K55R (Fc fusion): the IC50 (ng/mL); A204 CAGA12 luciferase reporter in experiment [6] was 777 ng/mL; in experiment [2] it was 318 ng/mL; in experiment [4], 206 ng/mL.

As to ActRIIB-Fc K74R (Fc fusion), the IC50 (ng/mL); A204 CAGA12 luciferase reporter in experiment [6] turned out to be 165 ng/mL; in experiment [2], 45 ng/mL.

With ActRIIB-Fc L79R (Fc fusion), the IC50 (ng/mL); A204 CAGA12 luciferase reporter in experiment [2] was found to be 234 ng/mL.

In the case of ActRIIB-Fc R40A (Fc fusion), the IC50 (ng/mL); A204 CAGA12 luciferase reporter in experiment [6] worked out at 1210 ng/mL; in experiment [2] it was 591 ng/mL.

In experiment [2], ActRIIB-Fc Y60K (Fc fusion) came in with an IC50 (ng/mL); A204 CAGA12 luciferase reporter of 414 ng/mL.

The substance ActRIIB-Fc Y60P (Fc fusion) had an IC50 (ng/mL); A204 CAGA12 luciferase reporter in experiment [2] of 544 ng/mL.

On to ActRIIB-G1Fc (SEQ ID NO: 5) (Fc fusion), for which the IC50 (nM); A204 CAGA12 luciferase reporter in experiment [1] was found to be 0.036 nM; in experiment [6], 1.82 nM; in experiment [2] it was 0.12 nM; in experiment [3], 0.95 nM; in experiment [4] it was 0.05 nM; in experiment [5], 0.067 nM. The IC50 (ng/mL); A204 CAGA12 luciferase reporter worked out at 31 ng/mL in experiment [6], 9 ng/mL in experiment [2] and 8 ng/mL in experiment [4].

These data come from patent US20230183319A1.
